{"source": "paper PMC10889901", "about": "“Deciphering the structure of a multi-drug resistant Acinetobacter baumannii short-chain dehydrogenase reductase” (PLOS ONE, 2024)", "biological_target": "the molecule itself", "experiment": "crystal structure; hanging-drop vapour diffusion, 23°C, 0.2 M lithium sulphate monohydrate, 0.1 M TRIS hydrochloride pH 8.5, 30% PEG 8,000; single protomer in the asymmetric unit, tetramer found by PISA analysis of the crystal", "data": [{"protein": "Acinetobacter baumannii short-chain dehydrogenase reductase (enzyme, residues of the vector printed after the TEV cleavage site (ENLYFQ/SNA), left on the protein after the tag is removed; short-chain dehydrogenase reductase (SDR) of Acinetobacter baumannii; Vector pMCSG21; one protomer in the asymmetric unit, the tetramer comes from crystal symmetry (PISA); also called SDR; SDR enzyme; source: E. coli BL21(DE3) pLysS, purified (HisTrap, TEV cleavage, Superdex …)) SNAMKLDLQNKIAVVSGSTSGIGLGIAKGLASAGATVVVVGRKQAGVDEAIAHIRQSVPEASLRGVDADLTTEQGAAALFAAEPKADILVNNLGIFNDEDFFSVPDEEWMRFYQVNVLSGVRLARHYAPSMVEQGWGRIIFISSESGVAIPGDMINYGVTKSANLAVSHGLAKRLAGTGVTVNAVLPGPTFTDGLENMLADAAAKAGRSTRDQADEFVKVLRPSSIIQRAAEVDEVANMVVYIASPLSSATSGAALRVDGGVVDTLV", "values": [{"measurement": "stoichiometry N", "result": 4}]}]}
